tested on: Escherichia coli TOP10; experiment: shrunken log2 fold change of peptide-encoding DNA abundance (4.5 h post-induction vs induction); higher = less antimicrobial activity (less host growth inhibition); conditions: time post-induction: 4.5 h; library: site-saturation at positions 5, 18, 19, 20
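Also: peptides expressed intracellularly from a pBAD plasmid library in pooled LB shake-flask culture, induced with 0.3% L-arabinose, DNA abundance read by NGS, three biological replicates, DESeq2 with apeglm shrinkage.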

Row | Sequence | shrunken log2 fold change
1 | RRIRCRPPRLPRPRPRPKSMPRP | -0.541
2 | RRIRKRPPRLPRPRPRPIKMPRP | 0.0326
3 | RRIRMRPPRLPRPRPRPKATPRP | 0.0633
4 | RRIRARPPRLPRPRPRPMGRPRP | 0.275
5 | RRIRQRPPRLPRPRPRPKHGPRP | 0.00489
6 | RRIRKRPPRLPRPRPRPRSTPRP | 0.177
7 | RRIRHRPPRLPRPRPRPPAKPRP | 0.539
8 | RRIRDRPPRLPRPRPRPWHLPRP | -0.231
9 | RRIRWRPPRLPRPRPRPARGPRP | 0.687
10 | RRIRCRPPRLPRPRPRPRCTPRP | -0.00347
11 | RRIRTRPPRLPRPRPRPEEFPRP | -0.0783
12 | RRIRKRPPRLPRPRPRPEFMPRP | 0.541
13 | RRIRSRPPRLPRPRPRPQSWPRP | 0.722
14 | RRIRWRPPRLPRPRPRPEPLPRP | 0.417
15 | RRIRYRPPRLPRPRPRPALMPRP | -0.226
16 | RRIRRRPPRLPRPRPRPISRPRP | -0.0551
17 | RRIRQRPPRLPRPRPRPLYEPRP | -0.671
18 | RRIRYRPPRLPRPRPRPPYQPRP | -0.369
19 | RRIRDRPPRLPRPRPRPAIIPRP | 0.0892
20 | RRIRYRPPRLPRPRPRPTAAPRP | 0.111
21 | RRIRIRPPRLPRPRPRPARKPRP | 0.462
22 | RRIRTRPPRLPRPRPRPLTWPRP | -0.174
23 | RRIRMRPPRLPRPRPRPMSCPRP | 0.0466
24 | RRIRRRPPRLPRPRPRPMGFPRP | 0.317
25 | RRIRNRPPRLPRPRPRPFIFPRP | -0.373

Row | Sequence | shrunken log2 fold change
26 | RRIRNRPPRLPRPRPRPKWIPRP | 0.0111
27 | RRIRGRPPRLPRPRPRPHVMPRP | 0.0731
28 | RRIRGRPPRLPRPRPRPSVEPRP | 0.651
29 | RRIRRRPPRLPRPRPRPTTEPRP | 0.0681
30 | RRIRSRPPRLPRPRPRPTFNPRP | -0.366
31 | RRIRCRPPRLPRPRPRPSQVPRP | -0.156
32 | RRIRVRPPRLPRPRPRPKELPRP | -0.00952
33 | RRIRIRPPRLPRPRPRPYMFPRP | -0.892
34 | RRIRRRPPRLPRPRPRPWFEPRP | 0.0607
35 | RRIRSRPPRLPRPRPRPAVEPRP | 0.39
36 | RRIRSRPPRLPRPRPRPKAYPRP | -0.0451
37 | RRIRSRPPRLPRPRPRPISWPRP | -0.186
38 | RRIRQRPPRLPRPRPRPCSHPRP | 0.0226
39 | RRIRLRPPRLPRPRPRPMNYPRP | -0.0583
40 | RRIRSRPPRLPRPRPRPATTPRP | 0.584
41 | RRIRYRPPRLPRPRPRPGDAPRP | 0.0773
42 | RRIRQRPPRLPRPRPRPHLFPRP | 0.0199
43 | RRIRTRPPRLPRPRPRPKSTPRP | 0.0437
44 | RRIRIRPPRLPRPRPRPNWWPRP | 0.159
45 | RRIRARPPRLPRPRPRPWNPPRP | 0.126
46 | RRIRIRPPRLPRPRPRPNYIPRP | -1.29
47 | RRIRLRPPRLPRPRPRPIVWPRP | -0.027
48 | RRIRYRPPRLPRPRPRPPEHPRP | -0.0551
49 | RRIRHRPPRLPRPRPRPYTLPRP | -0.611
50 | RRIRRRPPRLPRPRPRPLADPRP | 0.311

Row | Sequence | shrunken log2 fold change
51 | RRIRFRPPRLPRPRPRPWEKPRP | -0.0348
52 | RRIRIRPPRLPRPRPRPIGEPRP | 0.0399
53 | RRIRFRPPRLPRPRPRPKKRPRP | 0.3
54 | RRIRPRPPRLPRPRPRPNILPRP | -0.305
55 | RRIRMRPPRLPRPRPRPLTFPRP | -0.291
56 | RRIRIRPPRLPRPRPRPRRLPRP | -0.0824
57 | RRIRKRPPRLPRPRPRPQNCPRP | -0.132
58 | RRIRKRPPRLPRPRPRPHMCPRP | -0.066
59 | RRIRQRPPRLPRPRPRPYLIPRP | -0.89
60 | RRIRRRPPRLPRPRPRPMNCPRP | -0.0277
61 | RRIRRRPPRLPRPRPRPQCQPRP | 0.0393
62 | RRIRLRPPRLPRPRPRPTVPPRP | -0.0925
63 | RRIRQRPPRLPRPRPRPHECPRP | -0.0866
64 | RRIRKRPPRLPRPRPRPLMYPRP | -0.0706
65 | RRIRPRPPRLPRPRPRPVHKPRP | -0.0637
66 | RRIRCRPPRLPRPRPRPAGFPRP | 0.1
67 | RRIRSRPPRLPRPRPRPHYFPRP | -0.51
68 | RRIRWRPPRLPRPRPRPAKFPRP | 0.0295
69 | RRIRSRPPRLPRPRPRPQDIPRP | -0.296
70 | RRIRARPPRLPRPRPRPLGLPRP | 0.353
71 | RRIRYRPPRLPRPRPRPPDPPRP | 0.179
72 | RRIRWRPPRLPRPRPRPPEEPRP | 1.26
73 | RRIRHRPPRLPRPRPRPLQMPRP | -0.147
74 | RRIRHRPPRLPRPRPRPWRSPRP | -0.0818
75 | RRIRNRPPRLPRPRPRPSCGPRP | -0.178

Row | Sequence | shrunken log2 fold change
76 | RRIRGRPPRLPRPRPRPKKMPRP | 0.572
77 | RRIRDRPPRLPRPRPRPECEPRP | 1.53
78 | RRIRERPPRLPRPRPRPHTKPRP | 0.0349
79 | RRIRMRPPRLPRPRPRPFFLPRP | -0.199
80 | RRIRVRPPRLPRPRPRPWSSPRP | -1.19
81 | RRIRCRPPRLPRPRPRPPVVPRP | 0.0152
82 | RRIRYRPPRLPRPRPRPNICPRP | -0.204
83 | RRIRIRPPRLPRPRPRPTKKPRP | 0.0727
84 | RRIRFRPPRLPRPRPRPYEDPRP | -0.951
85 | RRIRPRPPRLPRPRPRPMKQPRP | 0.036
86 | RRIRFRPPRLPRPRPRPDKQPRP | -0.0106
87 | RRIRCRPPRLPRPRPRPLNIPRP | -0.379
88 | RRIRLRPPRLPRPRPRPYPAPRP | -0.368
89 | RRIRRRPPRLPRPRPRPHMNPRP | -0.315
90 | RRIRFRPPRLPRPRPRPSSCPRP | -0.183
91 | RRIRVRPPRLPRPRPRPFHMPRP | -0.54
92 | RRIRGRPPRLPRPRPRPTVWPRP | 1.32
93 | RRIRGRPPRLPRPRPRPCHKPRP | 0.121
94 | RRIRIRPPRLPRPRPRPIILPRP | -0.646
95 | RRIRARPPRLPRPRPRPDVEPRP | 0.389
96 | RRIRPRPPRLPRPRPRPKMEPRP | -0.0537
97 | RRIRGRPPRLPRPRPRPYLMPRP | -0.0538
98 | RRIRPRPPRLPRPRPRPIPYPRP | -0.384
99 | RRIRPRPPRLPRPRPRPVMEPRP | -0.101
100 | RRIRLRPPRLPRPRPRPMIKPRP | 0.0349

Row | Sequence | shrunken log2 fold change
101 | RRIRARPPRLPRPRPRPGALPRP | 1.22
102 | RRIRVRPPRLPRPRPRPLTNPRP | -0.447
103 | RRIRRRPPRLPRPRPRPSNFPRP | -0.177
104 | RRIRHRPPRLPRPRPRPVFTPRP | -0.392
105 | RRIRHRPPRLPRPRPRPKNEPRP | -0.476
106 | RRIRIRPPRLPRPRPRPMSKPRP | -0.332
107 | RRIRMRPPRLPRPRPRPVCMPRP | 0.392
108 | RRIRHRPPRLPRPRPRPDFAPRP | -1.07
109 | RRIRRRPPRLPRPRPRPYNDPRP | -0.176
110 | RRIRNRPPRLPRPRPRPMSAPRP | 0.0853
111 | RRIRIRPPRLPRPRPRPGTQPRP | -0.0235
112 | RRIRSRPPRLPRPRPRPIPDPRP | -0.0495
113 | RRIRFRPPRLPRPRPRPWMMPRP | -0.897
114 | RRIRTRPPRLPRPRPRPDLNPRP | 0.0685
115 | RRIRDRPPRLPRPRPRPYSVPRP | -0.0716
116 | RRIRDRPPRLPRPRPRPQCDPRP | -0.0921
117 | RRIRVRPPRLPRPRPRPAVRPRP | 0.123
118 | RRIRHRPPRLPRPRPRPNDMPRP | -0.26
119 | RRIRFRPPRLPRPRPRPDDAPRP | 0.133
120 | RRIRKRPPRLPRPRPRPEHNPRP | 0.368
121 | RRIRERPPRLPRPRPRPGYKPRP | -0.11
122 | RRIRDRPPRLPRPRPRPVANPRP | -0.0229
123 | RRIRFRPPRLPRPRPRPQWCPRP | -0.0514
124 | RRIRSRPPRLPRPRPRPGYQPRP | -0.147
125 | RRIRQRPPRLPRPRPRPMTWPRP | -0.0225

Row | Sequence | shrunken log2 fold change
126 | RRIRERPPRLPRPRPRPSNNPRP | -0.973
127 | RRIRSRPPRLPRPRPRPYEIPRP | -0.0474
128 | RRIRLRPPRLPRPRPRPQYVPRP | 0.0564
129 | RRIRFRPPRLPRPRPRPDAPPRP | 0.421
130 | RRIRRRPPRLPRPRPRPGMRPRP | 0.792
131 | RRIRIRPPRLPRPRPRPCYNPRP | -0.329
132 | RRIRVRPPRLPRPRPRPNPHPRP | -0.185
133 | RRIRQRPPRLPRPRPRPYNGPRP | -0.631
134 | RRIRDRPPRLPRPRPRPAYVPRP | -0.00133
135 | RRIRPRPPRLPRPRPRPKYYPRP | -0.783
136 | RRIRCRPPRLPRPRPRPNSKPRP | 0.297
137 | RRIRNRPPRLPRPRPRPLNSPRP | -0.162
138 | RRIRVRPPRLPRPRPRPQNGPRP | -0.356
139 | RRIRFRPPRLPRPRPRPHVAPRP | 0.119
140 | RRIRHRPPRLPRPRPRPAFDPRP | -0.00345
141 | RRIRGRPPRLPRPRPRPAVYPRP | 0.742
142 | RRIRSRPPRLPRPRPRPNSCPRP | -0.121
143 | RRIRSRPPRLPRPRPRPKPNPRP | 0.217
144 | RRIRMRPPRLPRPRPRPLCGPRP | 0.606
145 | RRIRSRPPRLPRPRPRPLCCPRP | 0.473
146 | RRIRPRPPRLPRPRPRPTYIPRP | -0.0167
147 | RRIRSRPPRLPRPRPRPVWIPRP | 0.0104
148 | RRIRFRPPRLPRPRPRPIDHPRP | -0.0746
149 | RRIRTRPPRLPRPRPRPTPDPRP | 0.306
150 | RRIRHRPPRLPRPRPRPMKDPRP | -0.778

Reference: the supplement of paper PMC9112550, “Optimization of the antimicrobial peptide Bac7 by deep mutational scanning” (BMC Biology, 2022)
